Results: publication PMC2253824, “The Human TPR Protein TTC4 Is a Putative Hsp90 Co-Chaperone Which Interacts with CDC6 and Shows Alterations in Transformed Cells” (PLoS ONE, 2008)

Tests used:
Conditions in all cases: partners not purified
[1] = biological target: T1, Drosophila Hsp90, two-hybrid fusion (Drosophila, UniProt P02828 1-717); experiment: two-hybrid; TTC4 with Drosophila proteins; data not shown
T1 construct: Hsp90 (Hsp83) of Drosophila; construct not described; Two-hybrid fusion; also called DmHsp90; source: yeast two-hybrid fusion
T1 sequence (P02828 whole entry, the tested form may be a part): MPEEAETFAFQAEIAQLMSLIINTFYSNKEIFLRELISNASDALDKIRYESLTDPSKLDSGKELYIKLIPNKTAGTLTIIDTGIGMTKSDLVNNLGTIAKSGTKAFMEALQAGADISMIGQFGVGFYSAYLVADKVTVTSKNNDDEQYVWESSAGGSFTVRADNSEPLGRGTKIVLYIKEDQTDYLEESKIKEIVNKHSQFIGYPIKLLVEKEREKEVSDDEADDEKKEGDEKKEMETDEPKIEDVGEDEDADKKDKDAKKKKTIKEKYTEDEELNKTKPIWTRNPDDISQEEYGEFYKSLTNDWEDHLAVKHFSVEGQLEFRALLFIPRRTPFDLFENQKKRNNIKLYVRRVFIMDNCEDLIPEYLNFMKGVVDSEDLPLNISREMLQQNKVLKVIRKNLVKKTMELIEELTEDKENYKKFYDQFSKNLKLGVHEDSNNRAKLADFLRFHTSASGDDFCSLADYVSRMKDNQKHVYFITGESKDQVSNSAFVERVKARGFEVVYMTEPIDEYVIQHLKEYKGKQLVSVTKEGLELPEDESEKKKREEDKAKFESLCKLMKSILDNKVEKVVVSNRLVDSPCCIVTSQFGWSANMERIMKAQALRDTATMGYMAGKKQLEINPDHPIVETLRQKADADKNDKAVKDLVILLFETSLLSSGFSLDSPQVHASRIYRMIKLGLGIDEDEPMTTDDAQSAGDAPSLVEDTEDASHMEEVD

[2] = biological target: T2, Drosophila Cdc6, two-hybrid fusion (Drosophila, UniProt Q9VSM9 1-662); experiment: as above
T2 construct: Cdc6 of Drosophila; construct not described; Two-hybrid fusion; also called DmCdc6; source: yeast two-hybrid fusion
T2 sequence (looked up): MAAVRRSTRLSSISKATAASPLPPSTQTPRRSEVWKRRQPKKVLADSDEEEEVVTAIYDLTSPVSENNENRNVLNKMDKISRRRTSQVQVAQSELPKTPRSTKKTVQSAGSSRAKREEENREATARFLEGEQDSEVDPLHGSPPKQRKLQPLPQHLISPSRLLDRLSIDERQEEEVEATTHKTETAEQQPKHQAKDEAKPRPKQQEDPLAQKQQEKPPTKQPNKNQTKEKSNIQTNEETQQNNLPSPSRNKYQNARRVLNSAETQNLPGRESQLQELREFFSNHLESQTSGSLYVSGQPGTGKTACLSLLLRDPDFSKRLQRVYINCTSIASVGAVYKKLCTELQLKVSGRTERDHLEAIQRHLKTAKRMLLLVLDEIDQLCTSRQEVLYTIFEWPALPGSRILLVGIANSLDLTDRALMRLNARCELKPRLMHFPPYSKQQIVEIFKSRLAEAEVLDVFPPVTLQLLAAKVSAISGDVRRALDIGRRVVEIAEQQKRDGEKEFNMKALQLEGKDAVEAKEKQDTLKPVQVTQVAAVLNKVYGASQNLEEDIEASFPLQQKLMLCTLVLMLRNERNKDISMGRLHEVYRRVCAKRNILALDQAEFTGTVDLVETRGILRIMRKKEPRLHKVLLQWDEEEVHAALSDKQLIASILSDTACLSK

[3] = biological target: T3, human HSP90 protein 1 beta (HSPCB), two-hybrid fusion in pEG202 (human, UniProt P08238 1-724); experiment: two-hybrid; quantitative liquid beta-galactosidase assays; values as a percentage of the cdc6/TTC4 interaction
T3 construct: HSP90 protein 1 beta (HSPCB), human full length cDNA clone from Origene, cloned in the Not1 and Xho1 sites of pEG202; also called HuHSP90; huHSP90; source: yeast two-hybrid fusion
T3 sequence (P08238 whole entry, the tested form may be a part): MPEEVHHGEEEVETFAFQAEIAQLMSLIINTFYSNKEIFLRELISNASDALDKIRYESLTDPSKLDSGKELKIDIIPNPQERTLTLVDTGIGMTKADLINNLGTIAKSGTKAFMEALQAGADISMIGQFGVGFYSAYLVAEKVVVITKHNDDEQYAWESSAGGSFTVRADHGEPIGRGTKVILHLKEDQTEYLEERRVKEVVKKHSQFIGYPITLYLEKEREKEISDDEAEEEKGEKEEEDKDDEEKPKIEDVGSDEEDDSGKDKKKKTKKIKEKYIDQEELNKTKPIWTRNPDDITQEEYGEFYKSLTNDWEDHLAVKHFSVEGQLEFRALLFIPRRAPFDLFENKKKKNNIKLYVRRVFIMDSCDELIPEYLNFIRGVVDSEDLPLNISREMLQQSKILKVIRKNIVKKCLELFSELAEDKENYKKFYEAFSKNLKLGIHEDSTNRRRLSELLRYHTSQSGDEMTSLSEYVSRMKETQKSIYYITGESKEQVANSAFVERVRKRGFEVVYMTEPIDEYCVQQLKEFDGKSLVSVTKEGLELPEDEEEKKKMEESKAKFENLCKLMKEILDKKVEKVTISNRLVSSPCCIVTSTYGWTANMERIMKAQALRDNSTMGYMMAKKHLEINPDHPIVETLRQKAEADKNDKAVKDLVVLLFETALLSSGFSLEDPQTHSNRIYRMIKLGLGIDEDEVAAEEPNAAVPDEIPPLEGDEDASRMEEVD

[4] = biological target: T4, human HSP70 protein 8 (HSPA8), two-hybrid fusion in pEG202 (human, UniProt P11142 1-646); experiment: as above
T4 construct: HSP70 protein 8 (HSPA8), human full length cDNA clone from Origene, cloned in the BamH1 and Xho1 sites of pEG202; also called HuHSP70; source: yeast two-hybrid fusion
T4 sequence (P11142 whole entry, the tested form may be a part): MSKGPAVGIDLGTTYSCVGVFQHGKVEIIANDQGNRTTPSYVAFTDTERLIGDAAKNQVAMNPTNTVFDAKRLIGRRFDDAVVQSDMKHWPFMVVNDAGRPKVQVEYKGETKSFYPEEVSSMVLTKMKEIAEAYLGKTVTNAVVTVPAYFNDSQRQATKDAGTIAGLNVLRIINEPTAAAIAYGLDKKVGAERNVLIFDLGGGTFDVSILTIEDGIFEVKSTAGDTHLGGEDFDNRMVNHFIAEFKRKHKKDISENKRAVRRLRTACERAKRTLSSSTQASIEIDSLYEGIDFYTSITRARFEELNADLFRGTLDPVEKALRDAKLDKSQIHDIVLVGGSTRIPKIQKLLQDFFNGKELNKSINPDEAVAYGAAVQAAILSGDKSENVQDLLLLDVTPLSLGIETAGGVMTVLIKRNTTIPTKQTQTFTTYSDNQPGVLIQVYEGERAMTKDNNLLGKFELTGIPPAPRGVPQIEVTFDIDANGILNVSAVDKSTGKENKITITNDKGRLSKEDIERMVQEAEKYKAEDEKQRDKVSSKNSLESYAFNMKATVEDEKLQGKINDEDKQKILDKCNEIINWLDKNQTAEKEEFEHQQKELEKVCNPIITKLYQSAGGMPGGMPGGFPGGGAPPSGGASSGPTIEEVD

[5] = biological target: T5, human CDC6, two-hybrid fusion in pEG202 (human, UniProt Q99741 1-560); experiment: as above
T5 construct: CDC6, human; clone from A. Dutta, cloned in the BamH1 and Not1 sites of pEG202; also called HuCDC6; hCDC6; source: yeast two-hybrid fusion
T5 sequence (looked up): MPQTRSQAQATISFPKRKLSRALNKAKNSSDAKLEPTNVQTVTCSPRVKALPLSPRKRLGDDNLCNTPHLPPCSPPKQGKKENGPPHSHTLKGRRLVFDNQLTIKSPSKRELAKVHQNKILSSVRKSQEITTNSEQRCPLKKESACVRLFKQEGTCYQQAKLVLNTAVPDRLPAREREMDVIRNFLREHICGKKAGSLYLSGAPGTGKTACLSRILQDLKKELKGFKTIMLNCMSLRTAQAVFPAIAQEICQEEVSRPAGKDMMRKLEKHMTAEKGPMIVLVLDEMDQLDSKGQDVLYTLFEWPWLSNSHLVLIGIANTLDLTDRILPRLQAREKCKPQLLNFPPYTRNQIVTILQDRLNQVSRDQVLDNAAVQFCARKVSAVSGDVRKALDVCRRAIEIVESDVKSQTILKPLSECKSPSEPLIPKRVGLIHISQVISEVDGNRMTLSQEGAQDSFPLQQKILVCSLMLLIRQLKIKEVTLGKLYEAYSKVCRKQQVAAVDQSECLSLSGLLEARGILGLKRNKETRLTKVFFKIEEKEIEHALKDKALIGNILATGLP

[6] = biological target: T6, human DNA polymerase alpha large subunit, two-hybrid fusion (human, UniProt P09884 1-1462); experiment: as above
T6 construct: DNA polymerase alpha large (catalytic) subunit, human; Two-hybrid fusion; also called HDPa; source: yeast two-hybrid fusion
T6 sequence (looked up): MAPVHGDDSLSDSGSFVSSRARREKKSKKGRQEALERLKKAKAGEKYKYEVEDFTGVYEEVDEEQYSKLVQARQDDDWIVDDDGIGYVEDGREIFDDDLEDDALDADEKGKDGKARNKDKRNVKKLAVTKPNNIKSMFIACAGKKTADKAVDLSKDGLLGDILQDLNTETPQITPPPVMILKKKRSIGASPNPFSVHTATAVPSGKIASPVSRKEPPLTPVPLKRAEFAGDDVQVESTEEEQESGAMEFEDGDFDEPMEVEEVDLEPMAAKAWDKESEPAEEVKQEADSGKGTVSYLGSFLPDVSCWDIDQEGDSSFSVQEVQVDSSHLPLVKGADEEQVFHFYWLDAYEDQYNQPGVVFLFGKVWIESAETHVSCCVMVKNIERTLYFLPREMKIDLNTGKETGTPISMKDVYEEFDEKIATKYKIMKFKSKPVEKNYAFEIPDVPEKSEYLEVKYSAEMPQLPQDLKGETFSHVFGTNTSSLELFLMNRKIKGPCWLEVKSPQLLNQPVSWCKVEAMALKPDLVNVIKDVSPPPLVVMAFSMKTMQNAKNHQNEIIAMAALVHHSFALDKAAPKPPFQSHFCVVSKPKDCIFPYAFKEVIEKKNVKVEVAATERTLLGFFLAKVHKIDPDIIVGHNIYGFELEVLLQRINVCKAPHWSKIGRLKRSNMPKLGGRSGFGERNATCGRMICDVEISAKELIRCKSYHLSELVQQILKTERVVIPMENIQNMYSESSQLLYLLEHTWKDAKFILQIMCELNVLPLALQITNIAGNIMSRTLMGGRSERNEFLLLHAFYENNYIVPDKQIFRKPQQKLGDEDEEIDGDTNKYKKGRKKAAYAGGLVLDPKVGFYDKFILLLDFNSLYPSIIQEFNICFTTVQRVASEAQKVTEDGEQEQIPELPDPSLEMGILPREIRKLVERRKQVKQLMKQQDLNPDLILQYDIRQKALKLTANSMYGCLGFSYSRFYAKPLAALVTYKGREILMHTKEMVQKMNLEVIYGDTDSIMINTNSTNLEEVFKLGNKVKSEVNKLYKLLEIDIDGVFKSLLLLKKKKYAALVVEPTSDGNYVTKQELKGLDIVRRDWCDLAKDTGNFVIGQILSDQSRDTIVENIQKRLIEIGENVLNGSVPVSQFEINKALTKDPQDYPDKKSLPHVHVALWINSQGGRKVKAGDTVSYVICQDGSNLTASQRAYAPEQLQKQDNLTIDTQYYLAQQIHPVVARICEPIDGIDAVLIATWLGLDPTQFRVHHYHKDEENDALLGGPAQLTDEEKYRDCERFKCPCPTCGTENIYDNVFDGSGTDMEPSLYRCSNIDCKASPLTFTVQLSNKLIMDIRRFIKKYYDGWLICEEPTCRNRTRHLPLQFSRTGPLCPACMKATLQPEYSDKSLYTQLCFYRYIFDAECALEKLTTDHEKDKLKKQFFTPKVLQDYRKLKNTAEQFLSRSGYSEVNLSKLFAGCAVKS

Binder	two-hybrid strength relative to TTC4 with huHSP90 [1] [%]	two-hybrid strength relative to TTC4 with human CDC6 [2] [%]	two-hybrid beta-galactosidase, percentage of the cdc6/TTC4 interaction [3] [%]	two-hybrid beta-galactosidase, percentage of the cdc6/TTC4 interaction [4] [%]	two-hybrid beta-galactosidase, percentage of the cdc6/TTC4 interaction [5] [%]	two-hybrid beta-galactosidase, percentage of the cdc6/TTC4 interaction [6] [%]
human TTC4, two-hybrid fusion in pJG4.5 (natural protein, UniProt O95801 1-387, looked up, TTC4 (tetratricopeptide repeat protein 4), human; full length gene, insert amplified and cloned in the EcoR1 and Xho sites of pJG4.5; source: yeast two-hybrid fusion) MEQPGQDPTSDDVMDSFLEKFQSQPYRGGFHEDQWEKEFEKVPLFMSRAPSEIDPRENPDLACLQSIIFDEERSPEEQAKTYKDEGNDYFKEKDYKKAVISYTEGLKKKCADPDLNAVLYTNRAAAQYYLGNFRSALNDVTAARKLKPCHLKAIIRGALCHLELKHFAEAVNWCDEGLQIDAKEKKLLEMRAKADKLKRIEQRDVRKANLKEKKERNQNEALLQAIKARNIRLSEAACEDEDSASEGLGELFLDGLSTENPHGARLSLDGQGRLSWPVLFLYPEYAQSDFISAFHEDSRFIDHLMVMFGETPSWDLEQKYCPDNLEVYFEDEDRAELYRVPAKSTLLQVLQHQRYFVKALTPAFLVCVGSSPFCKNFLRGRKVYQIR	50	50	100	80	100	< 5
TTC4-125TA (42VD), two-hybrid fusion in pJG4.5 (natural protein, human, UniProt O95801 1-387, looked up, TTC4, human, with a point mutation reported in melanoma samples, made by site-directed mutagenesis in TTC4 (pJG4.5); also called TTC4 codon 42 V to D; source: yeast two-hybrid fusion) MEQPGQDPTSDDVMDSFLEKFQSQPYRGGFHEDQWEKEFEKDPLFMSRAPSEIDPRENPDLACLQSIIFDEERSPEEQAKTYKDEGNDYFKEKDYKKAVISYTEGLKKKCADPDLNAVLYTNRAAAQYYLGNFRSALNDVTAARKLKPCHLKAIIRGALCHLELKHFAEAVNWCDEGLQIDAKEKKLLEMRAKADKLKRIEQRDVRKANLKEKKERNQNEALLQAIKARNIRLSEAACEDEDSASEGLGELFLDGLSTENPHGARLSLDGQGRLSWPVLFLYPEYAQSDFISAFHEDSRFIDHLMVMFGETPSWDLEQKYCPDNLEVYFEDEDRAELYRVPAKSTLLQVLQHQRYFVKALTPAFLVCVGSSPFCKNFLRGRKVYQIR	–	–	80	65	95	–
TTC4-201TG (67IM), two-hybrid fusion in pJG4.5 (natural protein, human, UniProt O95801 1-387, looked up, TTC4, human, with a point mutation reported in melanoma samples, made by site-directed mutagenesis in TTC4 (pJG4.5); also called TTC4 codon 67 I to M; source: yeast two-hybrid fusion) MEQPGQDPTSDDVMDSFLEKFQSQPYRGGFHEDQWEKEFEKVPLFMSRAPSEIDPRENPDLACLQSMIFDEERSPEEQAKTYKDEGNDYFKEKDYKKAVISYTEGLKKKCADPDLNAVLYTNRAAAQYYLGNFRSALNDVTAARKLKPCHLKAIIRGALCHLELKHFAEAVNWCDEGLQIDAKEKKLLEMRAKADKLKRIEQRDVRKANLKEKKERNQNEALLQAIKARNIRLSEAACEDEDSASEGLGELFLDGLSTENPHGARLSLDGQGRLSWPVLFLYPEYAQSDFISAFHEDSRFIDHLMVMFGETPSWDLEQKYCPDNLEVYFEDEDRAELYRVPAKSTLLQVLQHQRYFVKALTPAFLVCVGSSPFCKNFLRGRKVYQIR	–	–	90	70	95	–
TTC4-230AC (77EA), two-hybrid fusion in pJG4.5 (natural protein, human, UniProt O95801 1-387, looked up, TTC4, human, with a point mutation reported in melanoma samples, made by site-directed mutagenesis in TTC4 (pJG4.5); also called TTC4 codon 77 E to A; source: yeast two-hybrid fusion) MEQPGQDPTSDDVMDSFLEKFQSQPYRGGFHEDQWEKEFEKVPLFMSRAPSEIDPRENPDLACLQSIIFDEERSPEAQAKTYKDEGNDYFKEKDYKKAVISYTEGLKKKCADPDLNAVLYTNRAAAQYYLGNFRSALNDVTAARKLKPCHLKAIIRGALCHLELKHFAEAVNWCDEGLQIDAKEKKLLEMRAKADKLKRIEQRDVRKANLKEKKERNQNEALLQAIKARNIRLSEAACEDEDSASEGLGELFLDGLSTENPHGARLSLDGQGRLSWPVLFLYPEYAQSDFISAFHEDSRFIDHLMVMFGETPSWDLEQKYCPDNLEVYFEDEDRAELYRVPAKSTLLQVLQHQRYFVKALTPAFLVCVGSSPFCKNFLRGRKVYQIR	–	–	75	70	< 5	–
TTC4-651-TA (217NK), two-hybrid fusion in pJG4.5 (natural protein, human, UniProt O95801 1-387, looked up, TTC4, human, with a point mutation reported in melanoma samples, made by site-directed mutagenesis in TTC4 (pJG4.5); also called TTC4 codon 217 N to K; source: yeast two-hybrid fusion) MEQPGQDPTSDDVMDSFLEKFQSQPYRGGFHEDQWEKEFEKVPLFMSRAPSEIDPRENPDLACLQSIIFDEERSPEEQAKTYKDEGNDYFKEKDYKKAVISYTEGLKKKCADPDLNAVLYTNRAAAQYYLGNFRSALNDVTAARKLKPCHLKAIIRGALCHLELKHFAEAVNWCDEGLQIDAKEKKLLEMRAKADKLKRIEQRDVRKANLKEKKERKQNEALLQAIKARNIRLSEAACEDEDSASEGLGELFLDGLSTENPHGARLSLDGQGRLSWPVLFLYPEYAQSDFISAFHEDSRFIDHLMVMFGETPSWDLEQKYCPDNLEVYFEDEDRAELYRVPAKSTLLQVLQHQRYFVKALTPAFLVCVGSSPFCKNFLRGRKVYQIR	–	–	90	70	< 5	–
